We go through one substance from publication PMC4721544.

For this assay, the target named is EGFP-EVH2(Mena) (mouse). Description: cross-linking; lysates of MV^D7 cells stably expressing EGFP-EVH2 (Mena); 100 mM EDC and 10 mM NHS-ester, 1 h, room temperature; 50 mM MES pH 6.0, 500 mM NaCl; SDS/6% PAGE and anti-GFP western blot. For orientation: In western blotting, separated proteins are transferred to a membrane and probed.

Usually stoichiometry N stands for a count of units in the complex or per binding partner. On to EGFP-EVH2(Mena) (domain or fragment), for which the stoichiometry N was 4.
